Reference: the supplement of paper PMC10567573

B1: FCHO1 (parent)
chain: FTSSPSPFSSSSPENVEDSGLDSP

Variants of: B1
Experiment: protein stability index of a GFP-peptide fusion (GPS, HEK-293T) (PSI 1-6); higher = more stable
Settings: c terminus: a fixed tail appended
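Also: lentivirally expressed fusions sorted by FACS into six bins by GFP to DsRed ratio, PSI derived from sequencing read proportions per bin multiplied by bin number.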

Variant	protein stability index
FTSSPSPFSSSVPENVEDSGLDSP [S12V]	2.56
FTSSPSPFSSSFPENVEDSGLDSP [S12F]	2.65
FTSSPSPFSSSIPENVEDSGLDSP [S12I]	2.12
FTSSPSPFSSSMPENVEDSGLDSP [S12M]	1.99
FTSSPSPFSSSCPENVEDSGLDSP [S12C]	2.46
FTSSPSPFSSSNPENVEDSGLDSP [S12N]	2.37
FTSSPSPFSSSWPENVEDSGLDSP [S12W]	1.98
FTSSPSPFSSSYPENVEDSGLDSP [S12Y]	1.75
FTSSPSPFSSSGPENVEDSGLDSP [S12G]	2.36
FTSSPSPFSSSEPENVEDSGLDSP [S12E]	1.7
FTSSPSPFSSSLPENVEDSGLDSP [S12L]	2.27
FTSSPSPFSSSHPENVEDSGLDSP [S12H]	3.01
FTSSPSPFSSSRPENVEDSGLDSP [S12R]	1.56
FTSSPSPFSSSKPENVEDSGLDSP [S12K]	1.56
FTSSPSPFSSSDPENVEDSGLDSP [S12D]	2.53
FTSSPSPFSSSQPENVEDSGLDSP [S12Q]	2.26
FTSSPSPFSSSPPENVEDSGLDSP [S12P]	2.25
FTSSPSPFSSSTPENVEDSGLDSP [S12T]	2.01
FTSSPSPFSSSSPEYVEDSGLDSP [N15Y]	1.6
FTSSPSPFSSSSPECVEDSGLDSP [N15C]	2.24
FTSSPSPFSSSSPEEVEDSGLDSP [N15E]	1.82
FTSSPSPFSSSSPETVEDSGLDSP [N15T]	2.04
FTSSPSPFSSSSPEQVEDSGLDSP [N15Q]	1.81
FTSSPSPFSSSSPEFVEDSGLDSP [N15F]	1.73

Variant	protein stability index
FTSSPSPFSSSSPEIVEDSGLDSP [N15I]	2.05
FTSSPSPFSSSSPEKVEDSGLDSP [N15K]	1.43
FTSSPSPFSSSSPEDVEDSGLDSP [N15D]	2.25
FTSSPSPFSSSSPEWVEDSGLDSP [N15W]	2.39
FTSSPSPFSSSSPEPVEDSGLDSP [N15P]	2.95
FTSSPSPFSSSSPEVVEDSGLDSP [N15V]	2.46
FTSSPSPFSSSSPELVEDSGLDSP [N15L]	2.01
FTSSPSPFSSSSPEHVEDSGLDSP [N15H]	1.66
FTSSPSPFSSSSPESVEDSGLDSP [N15S]	2.33
FTSSPSPFSSSSPEMVEDSGLDSP [N15M]	2.57
FTSSPSPFSSSSPEGVEDSGLDSP [N15G]	1.64
FTSSPSPFSSSSPEAVEDSGLDSP [N15A]	2.13
FTSSPSPFSSSSPERVEDSGLDSP [N15R]	1.71
FTSSPSPFSSSSSENVEDSGLDSP [P13S]	2.13
FTSSPSPFSSSSVENVEDSGLDSP [P13V]	2.28
FTSSPSPFSSSSHENVEDSGLDSP [P13H]	2.29
FTSSPSPFSSSSQENVEDSGLDSP [P13Q]	2.39
FTSSPSPFSSSSKENVEDSGLDSP [P13K]	2.14
FTSSPSPFSSSSYENVEDSGLDSP [P13Y]	2.04
FTSSPSPFSSSSWENVEDSGLDSP [P13W]	1.83
FTSSPSPFSSSSRENVEDSGLDSP [P13R]	1.85
FTSSPSPFSSSSNENVEDSGLDSP [P13N]	1.66
FTSSPSPFSSSSEENVEDSGLDSP [P13E]	2.44
FTSSPSPFSSSSAENVEDSGLDSP [P13A]	1.77

Variant	protein stability index
FTSSPSPFSSSSDENVEDSGLDSP [P13D]	2.1
FTSSPSPFSSSSMENVEDSGLDSP [P13M]	1.58
FTSSPSPFSSSSFENVEDSGLDSP [P13F]	2.49
FTSSPSPFSSSSLENVEDSGLDSP [P13L]	2.21
FTSSPSPFSSSSIENVEDSGLDSP [P13I]	2.05
FTSSPSPFSSSSCENVEDSGLDSP [P13C]	1.53
FTSSPSPFSSSSGENVEDSGLDSP [P13G]	1.93
FTSSPSPFSSSSTENVEDSGLDSP [P13T]	1.77
FTSSPSPFSSSSPENPEDSGLDSP [V16P]	1.6
FTSSPSPFSSSSPENGEDSGLDSP [V16G]	2.75
FTSSPSPFSSSSPENMEDSGLDSP [V16M]	1.68
FTSSPSPFSSSSPENHEDSGLDSP [V16H]	2.27
FTSSPSPFSSSSPENKEDSGLDSP [V16K]	1.9
FTSSPSPFSSSSPENNEDSGLDSP [V16N]	1.86
FTSSPSPFSSSSPENCEDSGLDSP [V16C]	2.44
FTSSPSPFSSSSPENLEDSGLDSP [V16L]	1.7
FTSSPSPFSSSSPENIEDSGLDSP [V16I]	2.25
FTSSPSPFSSSSPENDEDSGLDSP [V16D]	2.39
FTSSPSPFSSSSPENEEDSGLDSP [V16E]	1.81
FTSSPSPFSSSSPENQEDSGLDSP [V16Q]	1.91
FTSSPSPFSSSSPENWEDSGLDSP [V16W]	2.16
FTSSPSPFSSSSPENYEDSGLDSP [V16Y]	2.03
FTSSPSPFSSSSPENREDSGLDSP [V16R]	2.08
FTSSPSPFSSSSPENAEDSGLDSP [V16A]	2.47

Variant	protein stability index
FTSSPSPFSSSSPENSEDSGLDSP [V16S]	2.15
FTSSPSPFSSSSPENTEDSGLDSP [V16T]	2.52
FTSSPSPFSSSSPENFEDSGLDSP [V16F]	1.75
FTSSPSPFSSSSPSNVEDSGLDSP [E14S]	2.17
FTSSPSPFSSSSPCNVEDSGLDSP [E14C]	1.69
FTSSPSPFSSSSPKNVEDSGLDSP [E14K]	2.1
FTSSPSPFSSSSPNNVEDSGLDSP [E14N]	2.14
FTSSPSPFSSSSPVNVEDSGLDSP [E14V]	2.15
FTSSPSPFSSSSPLNVEDSGLDSP [E14L]	2.22
FTSSPSPFSSSSPDNVEDSGLDSP [E14D]	2.4
FTSSPSPFSSSSPRNVEDSGLDSP [E14R]	1.61
FTSSPSPFSSSSPANVEDSGLDSP [E14A]	1.96
FTSSPSPFSSSSPGNVEDSGLDSP [E14G]	1.92
FTSSPSPFSSSSPQNVEDSGLDSP [E14Q]	2.31
FTSSPSPFSSSSPMNVEDSGLDSP [E14M]	2.05
FTSSPSPFSSSSPYNVEDSGLDSP [E14Y]	1.72
FTSSPSPFSSSSPINVEDSGLDSP [E14I]	1.9
FTSSPSPFSSSSPPNVEDSGLDSP [E14P]	1.94
FTSSPSPFSSSSPWNVEDSGLDSP [E14W]	2.78
FTSSPSPFSSSSPTNVEDSGLDSP [E14T]	1.84
FTSSPSPFSSSSPHNVEDSGLDSP [E14H]	1.95
FTSSPSPFSSSSPFNVEDSGLDSP [E14F]	1.64
